Test results published in the RNAGym collection of RNA variant scans (doi:10.1093/molbev/msab373).

B1: Azoarcus group I ribozyme (parent)
chain: GUGCCUUGCGCCGGGAAACCACGCAAGGGAUGGUGUCAAAUUCGGCGAAACCUAAGCGCCCGCCCGGGCGUAUGGCAACGCCGAGCCAAGCUUCGGCGCCUGCGCCGAUGAAGGUGUAGAGACUAGACGGCACCCACCUAAGGCAAACGCUAUGGUGAAGGCAUAGUCCAGGGAGUGGCGAAAGUCACACAAACCGG

Variants of: B1
Experiment: reverse-splicing fitness (ratio to wild type); higher = more active; in vitro selection; Mg2+ level not given
Summary of the method: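 An in vitro group I ribozyme library with randomized positions was T7-transcribed and gel-purified. In triplicate, 10 pmol RNA in EPPS pH 7.5 was reacted with 50 pmoles of a 30-nt RNA substrate for 1 h at 37 °C across several added MgCl2 levels (1–48 mM), then stopped with EDTA. Products were reverse transcribed from a substrate-complementary primer, PCR-amplified and sequenced (HiSeq 4000). Fitness is a variant's read proportion after selection over that before, normalised to wild type.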

**Q.** With A111U A120G C169U as the variant, how does the reverse-splicing fitness read?
**A.** 0.155

**Q.** For A111U A120U A145C C150U C169U U176C, which reverse-splicing fitness is on record?
**A.** 0.00285

**Q.** Which reverse-splicing fitness does the source give for A111U A120U A145C C150U C169U U176G here?
**A.** 0.0019

**Q.** With A111U A120U A145C C150U C169U U176A as the variant, how does the reverse-splicing fitness read?
**A.** 0.0036

**Q.** For A111U A120G A145C U176G, which reverse-splicing fitness is on record?
**A.** 0.00566

**Q.** For A111U A120G A145C U176C, which reverse-splicing fitness is on record?
**A.** 0.0455

**Q.** With A111U A120G A145C U176A as the variant, how does the reverse-splicing fitness read?
**A.** 0.038

**Q.** For A111U A120G A145C C150A C169U, which reverse-splicing fitness is on record?
**A.** 0.0118

**Q.** With A111U A120G A145C C150A C169A as the variant, how does the reverse-splicing fitness read?
**A.** 0.00967

**Q.** For A111U A120G A145C C150A C169G, which reverse-splicing fitness is on record?
**A.** 0.0146

**Q.** Which reverse-splicing fitness does the source give for A111U A120G A145U C150A C169G U176C here?
**A.** 0.0194

**Q.** Which reverse-splicing fitness does the source give for A111U A120G A145U C150A C169G U176G here?
**A.** 0.00465

**Q.** For A111U A120G A145U C150A C169G U176A, which reverse-splicing fitness is on record?
**A.** 0.0165

**Q.** With A111U A120C C150U C169U U176A as the variant, how does the reverse-splicing fitness read?
**A.** 0.0292

**Q.** Which reverse-splicing fitness does the source give for A111U A120C C150U C169U U176C here?
**A.** 0.0362

**Q.** Which reverse-splicing fitness does the source give for A111U A120C C150U C169U U176G here?
**A.** 0.00585

**Q.** Which reverse-splicing fitness does the source give for A111U A120G A145U C150G C169A here?
**A.** 0.0162

**Q.** Which reverse-splicing fitness does the source give for A111U A120G A145U C150G C169G here?
**A.** 0.021

**Q.** For A111U A120G A145U C150G C169U, which reverse-splicing fitness is on record?
**A.** 0.0212

**Q.** With A111U A120G A145G C150A C169U as the variant, how does the reverse-splicing fitness read?
**A.** 0.028

**Q.** With A111U A120G A145G C150A C169G as the variant, how does the reverse-splicing fitness read?
**A.** 0.0343

**Q.** With A111U A120G A145G C150A C169A as the variant, how does the reverse-splicing fitness read?
**A.** 0.0192

**Q.** With A111U A120U A145C C150G C169A U176A as the variant, how does the reverse-splicing fitness read?
**A.** 0.00234

**Q.** With A111U A120U A145C C150G C169A U176C as the variant, how does the reverse-splicing fitness read?
**A.** 0.00276

**Q.** With A111U A120U A145C C150G C169A U176G as the variant, how does the reverse-splicing fitness read?
**A.** 0.00254

**Q.** Which reverse-splicing fitness does the source give for A111U A120C C150U C169G U176C here?
**A.** 0.0132

**Q.** With A111U A120C C150U C169G U176G as the variant, how does the reverse-splicing fitness read?
**A.** 0.00495

**Q.** For A111U A120C C150U C169G U176A, which reverse-splicing fitness is on record?
**A.** 0.0138

**Q.** Which reverse-splicing fitness does the source give for A111U A120G A145G C150G C169A here?
**A.** 0.0157

**Q.** Which reverse-splicing fitness does the source give for A111U A120G A145G C150G C169U here?
**A.** 0.0237

**Q.** For A111U A120G A145G C150G C169G, which reverse-splicing fitness is on record?
**A.** 0.0234

**Q.** With A111U A120G A145C C150A C169A U176C as the variant, how does the reverse-splicing fitness read?
**A.** 0.00665

**Q.** Which reverse-splicing fitness does the source give for A111U A120G A145C C150A C169A U176G here?
**A.** 0.004

**Q.** With A111U A120G A145C C150A C169A U176A as the variant, how does the reverse-splicing fitness read?
**A.** 0.0144

**Q.** For A111U A120G A145U C150U, which reverse-splicing fitness is on record?
**A.** 0.104

**Q.** With A111U A120G A145U C150A as the variant, how does the reverse-splicing fitness read?
**A.** 0.0183

**Q.** With A111U A120G A145U C150G as the variant, how does the reverse-splicing fitness read?
**A.** 0.02

**Q.** Which reverse-splicing fitness does the source give for A111U A120U A145C here?
**A.** 0.518

**Q.** Which reverse-splicing fitness does the source give for A111U A120G A145C C150U C169U here?
**A.** 0.0397

**Q.** Which reverse-splicing fitness does the source give for A111U A120G A145C C150U C169G here?
**A.** 0.0495

**Q.** For A111U A120G A145C C150U C169A, which reverse-splicing fitness is on record?
**A.** 0.0284

**Q.** For A111U A120G A145C C150A U176G, which reverse-splicing fitness is on record?
**A.** 0.00407

**Q.** Which reverse-splicing fitness does the source give for A111U A120G A145C C150A U176C here?
**A.** 0.0112

**Q.** For A111U A120G A145C C150A U176A, which reverse-splicing fitness is on record?
**A.** 0.00785

**Q.** Which reverse-splicing fitness does the source give for A111U A120G A145G C150G U176C here?
**A.** 0.0156

**Q.** Which reverse-splicing fitness does the source give for A111U A120G A145G C150G U176A here?
**A.** 0.0103

**Q.** For A111U A120G A145G C150G U176G, which reverse-splicing fitness is on record?
**A.** 0.00598

**Q.** With A111U A120U A145C C150G C169A as the variant, how does the reverse-splicing fitness read?
**A.** 0.0033

**Q.** For A111U A120U A145C C150G C169G, which reverse-splicing fitness is on record?
**A.** 0.00697

**Q.** For A111U A120U A145C C150G C169U, which reverse-splicing fitness is on record?
**A.** 0.00895

**Q.** For A111U A120U A145C C150U C169A, which reverse-splicing fitness is on record?
**A.** 0.00229

**Q.** Which reverse-splicing fitness does the source give for A111U A120U A145C C150U C169U here?
**A.** 0.0159

**Q.** Which reverse-splicing fitness does the source give for A111U A120U A145C C150U C169G here?
**A.** 0.0115

**Q.** With A111U A120G A145U C169A U176C as the variant, how does the reverse-splicing fitness read?
**A.** 0.0247

**Q.** For A111U A120G A145U C169A U176G, which reverse-splicing fitness is on record?
**A.** 0.00427

**Q.** For A111U A120G A145U C169A U176A, which reverse-splicing fitness is on record?
**A.** 0.0201

**Q.** For A111U A120G C150G C169A U176G, which reverse-splicing fitness is on record?
**A.** 0.0057

**Q.** For A111U A120G C150G C169A U176A, which reverse-splicing fitness is on record?
**A.** 0.00974

**Q.** For A111U A120G C150G C169A U176C, which reverse-splicing fitness is on record?
**A.** 0.00933

**Q.** Which reverse-splicing fitness does the source give for A111U A120G A145U C150A C169A U176C here?
**A.** 0.0102

**Q.** For A111U A120G A145U C150A C169A U176A, which reverse-splicing fitness is on record?
**A.** 0.0123

**Q.** With A111U A120G A145U C150A C169A U176G as the variant, how does the reverse-splicing fitness read?
**A.** 0.00499

**Q.** Which reverse-splicing fitness does the source give for A111U A120U A145C C150G U176G here?
**A.** 0.00337

**Q.** Which reverse-splicing fitness does the source give for A111U A120U A145C C150G U176C here?
**A.** 0.0148

**Q.** Which reverse-splicing fitness does the source give for A111U A120U A145C C150G U176A here?
**A.** 0.0107

**Q.** For A111U A120G A145C C150U C169G U176A, which reverse-splicing fitness is on record?
**A.** 0.0293

**Q.** For A111U A120G A145C C150U C169G U176C, which reverse-splicing fitness is on record?
**A.** 0.0226

**Q.** Which reverse-splicing fitness does the source give for A111U A120G A145C C150U C169G U176G here?
**A.** 0.00545

**Q.** For A111U A120G A145G C150A U176G, which reverse-splicing fitness is on record?
**A.** 0.00712

**Q.** For A111U A120G A145G C150A U176A, which reverse-splicing fitness is on record?
**A.** 0.0138

**Q.** For A111U A120G A145G C150A U176C, which reverse-splicing fitness is on record?
**A.** 0.0274

**Q.** For A111U A120G A145U C150G C169A U176G, which reverse-splicing fitness is on record?
**A.** 0.00496

**Q.** With A111U A120G A145U C150G C169A U176A as the variant, how does the reverse-splicing fitness read?
**A.** 0.0103

**Q.** Which reverse-splicing fitness does the source give for A111U A120G A145U C150G C169A U176C here?
**A.** 0.0105

**Q.** With A111U A120G A145G C150U C169U U176G as the variant, how does the reverse-splicing fitness read?
**A.** 0.00563

**Q.** With A111U A120G A145G C150U C169U U176C as the variant, how does the reverse-splicing fitness read?
**A.** 0.0447

**Q.** With A111U A120G A145G C150U C169U U176A as the variant, how does the reverse-splicing fitness read?
**A.** 0.0386

**Q.** For A111U A120G A145G C169G U176A, which reverse-splicing fitness is on record?
**A.** 0.0455

**Q.** For A111U A120G A145G C169G U176G, which reverse-splicing fitness is on record?
**A.** 0.00492

**Q.** For A111U A120G A145G C169G U176C, which reverse-splicing fitness is on record?
**A.** 0.0601

**Q.** Which reverse-splicing fitness does the source give for A111U A120G A145G C150A here?
**A.** 0.0285

**Q.** With A111U A120G A145G C150G as the variant, how does the reverse-splicing fitness read?
**A.** 0.0235

**Q.** Which reverse-splicing fitness does the source give for A111U A120G A145G C150U here?
**A.** 0.133
